Data published in paper PMC3979393 (2014).

What was measured:
[1] = anti-Myc blot of surface, intracellular and lysate fractions; conditions: glycan lost; control: wild-type DDR1b
[2] = cell-surface biotinylation, avidin pulldown, anti-Myc blot; conditions: glycan lost; control: wild-type DDR1b, no collagen
[3] = BS3 cross-linking of lysates, IP, anti-DDR1 blot; conditions: glycan lost; control: wild-type DDR1b, no collagen
[4] = reversible biotinylation endocytosis assay, COS1; conditions: glycan lost; control: wild-type DDR1b
Rat tail collagen type I = Rat tail collagen type I (rat, UniProt P02454 152-1207; P02466 86-1125); assay: ELISA
Sequence of Rat tail collagen type I (P02454 152-1207, chain 1 of 2): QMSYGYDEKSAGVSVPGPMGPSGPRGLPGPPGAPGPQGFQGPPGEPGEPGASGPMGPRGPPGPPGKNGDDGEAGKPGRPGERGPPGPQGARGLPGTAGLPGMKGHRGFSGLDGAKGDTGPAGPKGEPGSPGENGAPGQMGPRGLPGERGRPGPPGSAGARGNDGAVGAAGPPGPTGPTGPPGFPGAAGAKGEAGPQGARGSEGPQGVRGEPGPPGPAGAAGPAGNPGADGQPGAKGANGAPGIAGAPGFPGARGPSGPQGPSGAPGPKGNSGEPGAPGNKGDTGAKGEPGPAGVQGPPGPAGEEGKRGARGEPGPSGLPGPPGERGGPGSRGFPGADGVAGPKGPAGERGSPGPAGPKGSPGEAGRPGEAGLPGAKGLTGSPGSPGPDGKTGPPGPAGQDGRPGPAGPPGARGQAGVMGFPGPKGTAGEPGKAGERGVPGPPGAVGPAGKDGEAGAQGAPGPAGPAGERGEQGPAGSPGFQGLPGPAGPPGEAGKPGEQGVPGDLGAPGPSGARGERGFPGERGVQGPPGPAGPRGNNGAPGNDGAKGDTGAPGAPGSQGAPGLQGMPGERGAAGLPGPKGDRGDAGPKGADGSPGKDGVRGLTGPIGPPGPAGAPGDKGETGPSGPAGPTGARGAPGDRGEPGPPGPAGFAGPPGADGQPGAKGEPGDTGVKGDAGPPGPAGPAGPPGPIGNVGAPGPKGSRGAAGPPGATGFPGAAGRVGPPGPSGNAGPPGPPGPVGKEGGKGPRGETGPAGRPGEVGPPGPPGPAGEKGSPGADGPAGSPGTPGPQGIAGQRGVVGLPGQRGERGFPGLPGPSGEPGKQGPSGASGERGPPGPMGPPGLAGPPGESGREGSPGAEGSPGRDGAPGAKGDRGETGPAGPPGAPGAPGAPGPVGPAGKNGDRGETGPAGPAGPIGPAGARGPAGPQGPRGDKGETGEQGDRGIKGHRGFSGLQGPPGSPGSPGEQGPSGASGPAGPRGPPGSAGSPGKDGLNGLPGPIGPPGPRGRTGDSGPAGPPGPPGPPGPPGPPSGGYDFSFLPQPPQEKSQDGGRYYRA
Sequence of Rat tail collagen type I (P02466 86-1125, chain 2 of 2): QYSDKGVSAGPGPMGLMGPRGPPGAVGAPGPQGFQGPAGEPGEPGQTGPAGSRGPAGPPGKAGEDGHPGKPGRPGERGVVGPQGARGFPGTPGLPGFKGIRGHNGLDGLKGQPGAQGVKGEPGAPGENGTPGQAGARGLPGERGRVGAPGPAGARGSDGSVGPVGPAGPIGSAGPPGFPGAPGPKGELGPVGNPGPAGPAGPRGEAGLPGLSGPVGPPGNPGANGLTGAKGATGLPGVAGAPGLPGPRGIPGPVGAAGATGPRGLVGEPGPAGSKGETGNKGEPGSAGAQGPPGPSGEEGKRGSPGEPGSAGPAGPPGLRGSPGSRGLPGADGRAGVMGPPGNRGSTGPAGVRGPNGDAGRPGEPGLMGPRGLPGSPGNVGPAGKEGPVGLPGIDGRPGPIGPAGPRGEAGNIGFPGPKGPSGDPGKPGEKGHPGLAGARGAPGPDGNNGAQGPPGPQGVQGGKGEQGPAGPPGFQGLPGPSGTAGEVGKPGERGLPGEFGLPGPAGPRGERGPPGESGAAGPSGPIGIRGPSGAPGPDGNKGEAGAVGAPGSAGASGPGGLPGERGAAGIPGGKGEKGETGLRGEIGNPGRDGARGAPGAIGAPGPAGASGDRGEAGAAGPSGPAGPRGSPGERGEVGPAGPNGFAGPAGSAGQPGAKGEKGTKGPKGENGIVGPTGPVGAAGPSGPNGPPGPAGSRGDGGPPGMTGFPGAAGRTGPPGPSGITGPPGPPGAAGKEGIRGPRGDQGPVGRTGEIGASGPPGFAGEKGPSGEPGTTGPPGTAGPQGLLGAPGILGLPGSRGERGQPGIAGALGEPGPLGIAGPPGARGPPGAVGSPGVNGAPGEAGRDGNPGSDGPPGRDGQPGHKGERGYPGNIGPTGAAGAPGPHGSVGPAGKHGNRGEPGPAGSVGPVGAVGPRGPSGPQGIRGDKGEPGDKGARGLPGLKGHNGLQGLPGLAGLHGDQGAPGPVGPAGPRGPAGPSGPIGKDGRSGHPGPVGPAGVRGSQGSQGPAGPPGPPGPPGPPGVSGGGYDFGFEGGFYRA

Kd (Rat tail collagen type I) [nM] | Binder | expression_or_secretion [1] | localisation_or_trafficking [2] | oligomerisation [3] | localisation_or_trafficking [4]
– | Discoidin domain receptor 1 (DDR1b): N211Q (protein) parent chain: MGPEALSSLLLLLLVASGDADMKGHFDPAKCRYALGMQDRTIPDSDISASSSWSDSTAARHSRLESSDGDGAWCPAGSVFPKEEEYLQVDLQRLHLVALVGTQGRHAGGLGKEFSRSYRLRYSRDGRRWMGWKDRWGQEVISGNEDPEGVVLKDLGPPMVARLVRFYPRADRVMSVCLRVELYGCLWRDGLLSYTAPVGQTMYLSEAVYLNDSTYDGHTVGGLQYGGLGQLADGVVGLDDFRKSQELRVWPGYDYVGWSNHSFSSGYVEMEFEFDRLRAFQAMQVHCNNMHTLGARLPGGVECRFRRGPAMAWEGEPMRHNLGGNLGDPRARAVSVPLGGRVARFLQCRFLFAGPWLLFSEISFISDVVNNSSPALGGTFPPAPWWPPGPPPTNFSSLELEPRGQQPVAKAEGSPTAILIGCLVAIILLLLLIIALMLWRLHWRRLLSKAERRVLEEELTVHLSVPGDTILINNRPGPREPPPYQEPRPRGNPPHSAPCVPNGSALLLSNPAYRLLLATYARPPRGPGPPTPAWAKPTNTQAYSGDYMEPEKPGAPLLPPPPQNSVPHYAEADIVTLQGVTGGNTYAVPALPPGAVGDGPPRVDFPRSRLRFKEKLGEGQFGEVHLCEVDSPQDLVSLDFPLNVRKGHPLLVAVKILRPDATKNARNDFLKEVKIMSRLKDPNIIRLLGVCVQDDPLCMITDYMENGDLNQFLSAHQLEDKAAEGAPGDGQAAQGPTISYPMLLHVAAQIASGMRYLATLNFVHRDLATRNCLVGENFTIKIADFGMSRNLYAGDYYRVQGRAVLPIRWMAWECILMGKFTTASDVWAFGVTLWEVLMLCRAQPFGQLTDEQVIENAGEFFRDQGRQVYLSRPPACPQGLYELMLRCWSRESEQRPPFSQLHRFLAEDALNTV | no change | no change | increases | decreases
4.75 | DDR1b ectodomain (ECD) harboring an IgG2 Fc fragment at the C-terminal end, N211Q (Fc fusion) DADMKGHFDPAKCRYALGMQDRTIPDSDISASSSWSDSTAARHSRLESSDGDGAWCPAGSVFPKEEEYLQVDLQRLHLVALVGTQGRHAGGLGKEFSRSYRLRYSRDGRRWMGWKDRWGQEVISGNEDPEGVVLKDLGPPMVARLVRFYPRADRVMSVCLRVELYGCLWRDGLLSYTAPVGQTMYLSEAVYLQDSTYDGHTVGGLQYGGLGQLADGVVGLDDFRKSQELRVWPGYDYVGWSNHSFSSGYVEMEFEFDRLRAFQAMQVHCNNMHTLGARLPGGVECRFRRGPAMAWEGEPMRHNLGGNLGDPRARAVSVPLGGRVARFLQCRFLFAGPWLLFSEISFISDVVNNSSPALGGTFPPAPWWPPGPPPTNFSSLELEPRGQQPVAKAEGSPT | – | – | – | –
3.33 | DDR1b ectodomain (ECD) harboring an IgG2 Fc fragment at the C-terminal end, wild type (Fc fusion) DADMKGHFDPAKCRYALGMQDRTIPDSDISASSSWSDSTAARHSRLESSDGDGAWCPAGSVFPKEEEYLQVDLQRLHLVALVGTQGRHAGGLGKEFSRSYRLRYSRDGRRWMGWKDRWGQEVISGNEDPEGVVLKDLGPPMVARLVRFYPRADRVMSVCLRVELYGCLWRDGLLSYTAPVGQTMYLSEAVYLNDSTYDGHTVGGLQYGGLGQLADGVVGLDDFRKSQELRVWPGYDYVGWSNHSFSSGYVEMEFEFDRLRAFQAMQVHCNNMHTLGARLPGGVECRFRRGPAMAWEGEPMRHNLGGNLGDPRARAVSVPLGGRVARFLQCRFLFAGPWLLFSEISFISDVVNNSSPALGGTFPPAPWWPPGPPPTNFSSLELEPRGQQPVAKAEGSPT | – | – | – | –
